± gives the standard deviation of the averaged measurements.
Experiment: total protein half-life in vivo (active degradation + dilution); higher = more stable protein
[1] = E. coli NCM3722 delta-clpP delta-lon delta-hslV, growth: N-lim chemostat, doubling time 6 h
[2] = E. coli NCM3722 delta-clpP, growth: N-lim chemostat, doubling time 6 h
[3] = E. coli NCM3722 delta-hslV, growth: N-lim chemostat, doubling time 6 h
[4] = E. coli NCM3722 delta-lon, growth: N-lim chemostat, doubling time 6 h
[5] = E. coli NCM3722 delta-smpB, growth: N-lim chemostat, doubling time 6 h
[6] = wild type E. coli NCM3722, growth: C-lim chemostat, doubling time 3 h
[7] = wild type E. coli NCM3722, growth: C-lim chemostat, doubling time 6 h
[8] = wild type E. coli NCM3722, growth: C-lim chemostat, doubling time 12 h
[9] = wild type E. coli NCM3722, growth: N-lim chemostat, doubling time 6 h
[10] = wild type E. coli NCM3722, growth: N-lim chemostat, doubling time 12 h
[11] = wild type E. coli NCM3722, growth: P-lim chemostat, doubling time 6 h
[12] = wild type E. coli NCM3722, growth: P-lim chemostat, doubling time 12 h

Sequence	total protein half-life in vivo [1] [h]	total protein half-life in vivo [2] [h]	total protein half-life in vivo [3] [h]	total protein half-life in vivo [4] [h]	total protein half-life in vivo [5] [h]	total protein half-life in vivo [6] [h]	total protein half-life in vivo [7] [h]	total protein half-life in vivo [8] [h]	total protein half-life in vivo [9] [h]	total protein half-life in vivo [10] [h]	total protein half-life in vivo [11] [h]	total protein half-life in vivo [12] [h]
MSVIGRIHSFESCGTVDGPGIRFITFFQGCLMRCLYCHNRDTWDTHGGKEVTVEDLMKEVVTYRHFMNASGGGVTASGGEAILQAEFVRDWFRACKKEGIHTCLDTNGFVRRYDPVIDELLEVTDLVMLDLKQMNDEIHQNLVGVSNHRTLEFAKYLANKNVKVWIRYVVVPGWSDDDDSAHRLGEFTRDMGNVEKIELLPYHELGKHKWVAMGEEYKLDGVKPPKKETMERVKGILEQYGHKVMF [P0A9N4]	4.86 ± 0.073	5.05 ± 1.6	5.08 ± 0.1	4.485 ± 0.029	3.9 ± 0.28	2.9 ± 0.1	5.48 ± 1	9.78 ± 0.27	4.41 ± 0.36	6.62 ± 0.36	4.78 ± 0.3	10.1 ± 0.91
MSVIIVGGGMAGATLALAISRLSHGALPVHLIEATAPESHAHPGFDGRAIALAAGTCQQLARIGVWQSLADCATAITTVHVSDRGHAGFVTLAAEDYQLAALGQVVELHNVGQRLFALLRKAPGVTLHCPDRVANVARTQSHVEVTLESGETLTGRVLVAADGTHSALATACGVDWQQEPYEQLAVIANVATSVAHEGRAFERFTQHGPLAMLPMSDGRCSLVWCHPLERREEVLSWSDEKFCRELQSAFGWRLGKITHAGKRSAYPLALTHAARSITHRTVLVGNAAQTLHPIAGQGFNLGMRDVMSLAETLTQAQERGEDMGDYGVLCRYQQRRQSDREATIGVTDSLVHLFANRWAPLVVGRNIGLMTMELFTPARDVLAQRTLGWVAR	5.61 ± 0.23	4.77 ± 0.24	6.05 ± 2.4	3.69 ± 0.053	4.23 ± 0.17	2.72 ± 0.17	4.42 ± 0.18	6.83 ± 0.21	4.24 ± 1.1	9.5	2.82 ± 0.096	4.59 ± 0.42
MSVKIVIKPNTYFDSVSLMSISTRANKLDGVEQAFVAMATEMNKGVLKNLGLLTPELEQAKNGDLMIVINGKSGADNEQLLVEIEELFNTKAQSGSHEARYATIGSAKKHIPESNLAVISVNGLFAAREARQALQNDLNVMLFSDNVSVEDELALKQLAHEKGLLMMGPDCGTAIINGAALCFGNAVRRGNIGIVGASGTGSQELSVRIHEFGGGVSQLIGTGGRDLSEKIGGLMMLDAIGMLENDPQTEIIALISKPPAPAVARKVLERARACRKPVVVCFLDRGETPVDEQGLQFARGTKEAALKAVMLSGVKQENLDLHTLNQPLIADVRARLQPQQKYIRGLFCGGTLCDETMFAVMEKHGDVYSNIQPDPEFRLKDINRSIKHTFLDFGDDDFTNGKPHPMIDPTNRISRLIEEARDPEVAVIVMDFVLGFGSHEDPVGSTIETIKEAKAIAAAEGRELIILAYVLGTDLDTPSLEQQSQMLLDAGVILASSSTNTGLLAREFICKGEEA	4.99	6.9	3.51	3.92	3.47 ± 0.37	3.06	4.99 ± 0.41	4.892 ± 0.0075	5.14	8.02 ± 1.4	4.47	7.02
MSVKVIVTDMDGTFLNDAKTYNQPRFMAQYQELKKRGIKFVVASGNQYYQLISFFPELKDEISFVAENGALVYEHGKQLFHGELTRHESRIVIGELLKDKQLNFVACGLQSAYVSENAPEAFVALMAKHYHRLKPVKDYQEIDDVLFKFSLNLPDEQIPLVIDKLHVALDGIMKPVTSGFGFIDLIIPGLHKANGISRLLKRWDLSPQNVVAIGDSGNDAEMLKMARYSFAMGNAAENIKQIARYATDDNNHEGALNVIQAVLDNTSPFNS	5.01 ± 0.82	4.02 ± 0.23	4.38 ± 0.48	4.38 ± 0.34	3.98 ± 0.12	3.71 ± 0.2		12.38 ± 0.075	4.31 ± 0.45	6.96 ± 0.49	6.13 ± 0.23	
MSVMFDPDTAIYPFPPKPTPLSIDEKAYYREKIKRLLKERNAVMVAHYYTDPEIQQLAEETGGCISDSLEMARFGAKHPASTLLVAGVRFMGETAKILSPEKTILMPTLQAECSLDLGCPVEEFNAFCDAHPDRTVVVYANTSAAVKARADWVVTSSIAVELIDHLDSLGEKIIWAPDKHLGRYVQKQTGGDILCWQGACIVHDEFKTQALTRLQEEYPDAAILVHPESPQAIVDMADAVGSTSQLIAAAKTLPHQRLIVATDRGIFYKMQQAVPDKELLEAPTAGEGATCRSCAHCPWMAMNGLQAIAEALEQEGSNHEVHVDERLRERALVPLNRMLDFAATLRG	3.98 ± 0.16	1.78 ± 0.25	0.977 ± 0.24	1.1 ± 0.098	1.08 ± 0.25	1.14 ± 0.026	1.39 ± 0.083	1.8 ± 0.44	0.926 ± 0.058	1.03 ± 0.097	1.26	2.48 ± 0.81
MSVQQIDWDLALIQKYNYSGPRYTSYPTALEFSEDFGEQAFLQAVARYPERPLSLYVHIPFCHKLCYFCGCNKIVTRQQHKADQYLDALEQEIVHRAPLFAGRHVSQLHWGGGTPTYLNKAQISRLMKLLRENFQFNADAEISIEVDPREIELDVLDHLRAEGFNRLSMGVQDFNKEVQRLVNREQDEEFIFALLNHAREIGFTSTNIDLIYGLPKQTPESFAFTLKRVAELNPDRLSVFNYAHLPTIFAAQRKIKDADLPSPQQKLDILQETIAFLTQSGYQFIGMDHFARPDDELAVAQREGVLHRNFQGYTTQGDTDLLGMGVSAISMIGDCYAQNQKELKQYYQQVDEQGNALWRGIALTRDDCIRRDVIKSLICNFRLDYAPIEKQWDLHFADYFAEDLKLLAPLAKDGLVDVDEKGIQVTAKGRLLIRNICMCFDTYLRQKARMQQFSRVI	4.79 ± 0.99	3.9 ± 0.13	3.36 ± 0.42	3.22 ± 0.1	2.98 ± 0.056	2.55 ± 0.33	4.23 ± 0.08	6.14 ± 0.71	2.99 ± 0.12	4.64 ± 0.16	4.23 ± 0.068	7.23 ± 0.7
MSVVISDAWRQRFGGTARLYGEKALQLFADAHICVVGIGGVGSWAAEALARTGIGAITLIDMDDVCVTNTNRQIHALRDNVGLAKAEVMAERIRQINPECRVTVVDDFVTPDNVAQYMSVGYSYVIDAIDSVRPKAALIAYCRRNKIPLVTTGGAGGQIDPTQIQVTDLAKTIQDPLAAKLRERLKSDFGVVKNSKGKLGVDCVFSTEALVYPQSDGTVCAMKATAEGPKRMDCASGFGAATMVTATFGFVAVSHALKKMMAKAARQG	4.94 ± 0.44		3.85 ± 1.2		5.05 ± 0.58	3.36 ± 0.59	5.77 ± 0.26	9.6 ± 0.78	4.87 ± 0.32	6.86 ± 1.1	5.2 ± 0.15	11.79 ± 0.028
